Consider three molecules from publication PMC9930174 (2022).

Assay [1] concerns the target T1, α-myosin (MYH6) peptide on H-2Kb (mouse).
T1 peptide: VIQYFASI
The assay can be described thus: activation reporter or marker.

The target of assay [2] is T2, α-myosin (MYH6) peptide on HLA-A*24:02 (human).
T2 peptide: RINATLETK
Nature of the assay: multimer staining.

Assay [3] deals with T3, α-myosin (MYH6) peptide on HLA-A*03:01 (human).
T3 peptide: RINATLETK
Nature of the assay: multimer staining.

Assay [4] deals with T4, α-myosin (MYH6) peptide on H-2Kb (mouse).
T4 peptide: VQQVYYSI
Nature of the assay: activation reporter or marker.

B1: TCR-B (TCR)
alpha TRAV13-1 TRAJ22 CDR3: CALERASGSWQLIF
beta TRBV15 TRBJ2-7 CDR3: CASSLRRGEQYF
On to B1, for which, in assay [1], the binding result was “recognises”.

B2: TCR-Pt1 (TCR)
alpha TRAV19 TRAJ32 CDR3: CALSDRYGGATNKLIF
beta TRBV9 TRBJ2-6 CDR3: CASSPYQSSGANVLTF
For the molecule B2, the binding result in assay [2] is reported as “no recognition”; in assay [3], “recognises”.

B3: TCR-C (TCR)
alpha TRAV6D-6 TRAJ39 CDR3: CALGDRNNAGAKLTF
beta TRBV12-2 TRBJ2-5 CDR3: CASSLGGTVQDTQYF
Consider B3, for which the binding result in assay [4] is “recognises”.
